Test results published in patent US20220213227A1 (published 2022).

Assays:
human HER2 on cells = human HER2 on cells (human, UniProt P04626 23-1255); assay: cell-based or functional assay
[1] = molecular target: T1, human CD3 gamma-epsilon-Fc fusion protein (human); assay: SPR using the human CD3gamma-epsilon-Fc construct
T1 construct: also called CD3 gamma-epsilon-Fc protein; human CD3gamma-epsilon-Fc construct

human EGFR on cells [2] = molecular target: T2, human EGFR on cells (human, UniProt P00533 25-1210); assay: cell-based or functional assay
human EGFR on cells [3] = molecular target: T2, human EGFR on cells; assay: cell-based or functional assay; remark: listed apart in the source

Binder	EC50 of T cell redirected killing of BT-474 cells (RDL-MTS) (human HER2 on cells) [pM]	EC50 of T cell redirected killing of JIMT-1 cells (RDL-FACS) (human HER2 on cells) [pM]	EC50 of T cell redirected killing of JIMT-1 cells (RDL-MTS) (human HER2 on cells) [pM]	EC50 of T cell redirected killing of MDA-MB-231 cells (RDL-FACS) (human HER2 on cells) [pM]	EC50 of T cell redirected killing of MDA-MB-231 cells (RDL-MTS) (human HER2 on cells) [pM]	binding result [1]	EC50 of redirected T-cell lysis of A549 cells (human EGFR on cells [2]) [pM]	EC50 of redirected T-cell lysis of HCC827 cells (value of the text, differs from the table) (human EGFR on cells [2]) [pM]	EC50 (X)/EC50 (HCC827), HCT116 cells (human EGFR on cells [3]) [ratio]	EC50 (X)/EC50 (HCC827), MCF7 cells (human EGFR on cells [3]) [ratio]	EC50 (X)/EC50 (HCC827), SW480 cells (human EGFR on cells [3]) [ratio]	EC50 of redirected T-cell lysis of HCC827 cells (human EGFR on cells [3]) [pM]	EC50 of redirected T-cell lysis of HCT116 cells (human EGFR on cells [3]) [pM]	EC50 of redirected T-cell lysis of MCF7 cells (human EGFR on cells [3]) [pM]	EC50 of redirected T-cell lysis of SW480 cells (human EGFR on cells [3]) [pM]
BEAT HER2/CD3-1 antibody (bispecific antibody, human IgG1, kappa, L234A L235A, also called HER2/CD3-1 bispecific antibody) heavy: EVQLVESGGGLVQPGGSLRLSCAASGYTFTRYTMHWVRQAPGKGLEWIGYINPSRGYTYYADSVKGRFTLSTDKSKNTAYLQMSSLRAEDTAVYYCARYYDDHYCLDYWGQGTLVTVSSASTKGPSVFPLAPSSKSTSGGTAALGCLVKDYFPEPVTVSWNSGALTSGVHTFPAVLQSSGLYSLSSVVTVPSSSLGTQTYICNVNHKPSNTKVDKKVEPKSCDKTHTCPPCPAPEAAGGPSVFLFPPKPKDTLMISRTPEVTCVVVDVSHEDPEVQFKWYVDGVEVHNAKTKPREEQYNSTFRVVSVLTVLHQDWLNGKEYKCKVSNKALPAPIEKTISKTKGQPREPAVYTLPPSREEMTKNQVKLVCLVTGFYPSDIAVEWESSGQPENNYYTTPPMLDSDGSFSLVSWLNVDKSRWQQGNIFSCSVMHEALHNRFTQKSLSLSPGK light: DIQLTQSPSSLSASVGDRVTITCRASSSVSYVAWYQQKPGKAPKRWIYDTSKLYSGVPSRFSGSGSGTDYTLTISSLQPEDFATYYCQQWSSNPPTFGQGTKVEIKRTVAAPSVFIFPPSDEQLKSGTASVVCLLNNFYPREAKVQWKVDNALQSGNSQESVTEQDSKDSTYSLSSTLTLSKADYEKHKVYACEVTHQGLSSPVTKSFNRGEC not shown	0.6	1.4	21	80	~200	binds									
BEAT HER2/CD3-2 antibody (bispecific antibody, human IgG1, kappa, L234A L235A) heavy: not shown light: not shown EVQLVESGGGLVQPGGSLRLSCAASGYTFTRYTMHWVRQAPGKGLEWIGYINPSRGYTYYADSVKGRFTLSTDKSKNTAYLQMSSLRAEDTAVYYCARYYDDHYCLDYWGQGTLVTVSSGGGGSGGGGSGGGGSGGGASDIQLTQSPSSLSASVGDRVTITCRASSSVSYVAWYQQKPGKAPKRWIYDTSKLYSGVPSRFSGSGSGTDYTLTISSLQPEDFATYYCQQWSSNPPTFGQGTKVEIKGGGGTDKTHTCPPCPAPEAAGGPSVFLFPPKPKDTLMISRTPEVTCVVVDVSHEDPEVQFKWYVDGVEVHNAKTKPREEQYNSTFRVVSVLTVLHQDWLNGKEYKCKVSNKALPAPIEKTISKTKGQPREPEVATFPPSREEMTKNQVTLVCLVTGFYPSDIAVEWESSGQPENNYNTDPPLLESDGSFALSSRLRVDKSRWQQGNIFSCSVMHEALHNRFTQKSLSLSPGK	2		16		~200	binds									
VECTIBIX (panitumumab)/hSP34 BEAT (bispecific antibody) VH: QVQLQESGPGLVKPSETLSLTCTVSGGSVSSGDYYWTWIRQSPGKGLEWIGHIYYSGNTNYNPSLKSRLTISIDTSKTQFSLKLSSVTAADTAIYYCVRDRVTGAFDIWGQGTMVTVSS VL: DIQMTQSPSSLSASVGDRVTITCQASQDISNYLNWYQQKPGKAPKLLIYDASNLETGVPSRFSGSGSGTDFTFTISSLQPEDIATYFCQHFDHLPLAFGGGTKVEIK not shown							0.613	0.156	2.3	4300	47.9	0.146	0.341	627	6.99
